Data as given in the supplement of paper PMC11316812.
± gives the standard deviation of the averaged measurements.

Key:
[1] = system: hTERT-HMEC; assay: percentage of EdU-negative (G0-arrested) nuclei per well, 72 h; higher = more G0 arrest; details: reference: sequence is the full UniProt precursor, the tested protein was the secreted form or ectodomain
[2] = system: MCF7; assay: as above; details: reference: sequence is the full UniProt precursor, the tested protein was the secreted form or ectodomain
[3] = protein concentration 0.0282857 µM
[4] = protein concentration 0.282857 µM
[5] = protein concentration 0.0225 µM
[6] = protein concentration 0.00857143 µM
[7] = protein concentration 0.0857143 µM
[8] = protein concentration 0.01547 µM
[9] = protein concentration 0.1547 µM
[10] = protein concentration 0.021325 µM
[11] = protein concentration 0.03125 µM
[12] = protein concentration 0.21325 µM
[13] = protein concentration 0.3125 µM
[14] = protein concentration 0.0272075 µM
[15] = protein concentration 0.272075 µM
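Further: secreted proteins added to cultured cells, EdU pulse at the end, nuclei found by Hoechst imaging, EdU status from nuclear versus surrounding ring intensity ratio, PBS as neutral control.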

“MSSWSRQRPKSPGGIQPHVSRTLFLLLLLAASAWGVTLSPKDCQVFRSDHGSSISCQPPAEIPGYLPADTVHLAVEFFNLTHLPANLLQGASKLQELHLSSNGLESLSPEFLRPVPQLRVLDLTRNALTGLPPGLFQASATLDTLVLKENQLEVLEVSWLHGLKALGHLDLSGNRLRKLPPGLLANFTLLRTLDLGENQLETLPPDLLRGPLQLERLHLEGNKLQVLGKDLLLPQPDLRYLFLNGNKLARVAAGAFQGLRQLDMLDLSNNSLASVPEGLWASLGQPNWDMRDGFDISGNPWICDQNLSDLYRWLQAQKDKMFSQNDTRCAGPEAVKGQTLLAVAKSQ” was tested, and the “percentage of EdU-negative” value [1, 3] was 4.97 ± 0.88%, the “percentage of EdU-negative” value [1, 4] was 6.814 ± 0.037% and the “percentage of EdU-negative” value [2, 3] was 22.3 ± 2.4%. For the same sequence, the “percentage of EdU-negative” value [2, 4] was 25.7 ± 1.4%.

With “MSVMKPCLMTIAILMILAQKTPGGLFRSHNGKSREPWNPCELYQGMCRNACREYEIQYLTCPNDQKCCLKLSVKITSSKNVKEDYDSNSNLSVTNSSSYSHI [Q30KQ4]” the “percentage of EdU-negative” value [1, 5] was 5.55 ± 0.29%, the “percentage of EdU-negative” value ([1]; protein concentration 0.225 µM) was 5.56 ± 0.81% and the “percentage of EdU-negative” value [2, 5] was 25.4 ± 1.7%. The “percentage of EdU-negative” value ([2]; protein concentration 0.225 µM) was 23.5 ± 1.3%.

In the case of “MSVPLLKIGVVLSTMAMITNWMSQTLPSLVGLNTTKLSAAGGGTLDRSTGVLPTNPEESWQVYSSAQDSEGRCICTVVAPQQTMCSRDARTKQLRQLLEKVQNMSQSIEVLDRRTQRDLQYVEKMENQMKGLESKFKQVEESHKQHLARQFKAIKAKMDELRPLIPVLEEYKADAKLVLQFKEEVQNLTSVLNELQEEIGAYDYDELQSRVSNLEERLRACMQKLACGKLTGISDPVTVKTSGSRFGSWMTDPLAPEGDNRVWYMDGYHNNRFVREYKSMVDFMNTDNFTSHRLPHPWSGTGQVVYNGSIYFNKFQSHIIIRFDLKTETILKTRSLDYAGYNNMYHYAWGGHSDIDLMVDESGLWAVYATNQNAGNIVVSRLDPVSLQTLQTWNTSYPKRSAGEAFIICGTLYVTNGYSGGTKVHYAYQTNASTYEYIDIPFQNKYSHISMLDYNPKDRALYAWNNGHQILYNVTLFHVIRSDEL”, the “percentage of EdU-negative” value [1, 6] is reported as 4.93 ± 0.14%, the “percentage of EdU-negative” value [1, 7] is reported as 9.49 ± 1.4% and the “percentage of EdU-negative” value [2, 6] is reported as 25.5 ± 3.5%. The “percentage of EdU-negative” value [2, 7] was 29.3 ± 2.1%.

With “MSWSLHPRNLILYFYALLFLSSTCVAYVATRDNCCILDERFGSYCPTTCGIADFLSTYQTKVDKDLQSLEDILHQVENKTSEVKQLIKAIQLTYNPDESSKPNMIDAATLKSRKMLEEIMKYEASILTHDSSIRYLQEIYNSNNQKIVNLKEKVAQLEAQCQEPCKDTVQIHDITGKDCQDIANKGAKQSGLYFIKPLKANQQFLVYCEIDGSGNGWTVFQKRLDGSVDFKKNWIQYKEGFGHLSPTGTTEFWLGNEKIHLISTQSAIPYALRVELEDWNGRTSTADYAMFKVGPEADKYRLTYAYFAGGDAGDAFDGFDFGDDPSDKFFTSHNGMQFSTWDNDNDKFEGNCAEQDGSGWWMNKCHAGHLNGVYYQGGTYSKASTPNGYDNGIIWATWKTRWYSMKKTTMKIIPFNRLTIGEGQQHHLGGAKQVRPEHPAETEYDSLYPEDDL” the “percentage of EdU-negative” value [1, 8] was 5.07 ± 0.17%, the “percentage of EdU-negative” value [1, 9] was 5.92 ± 0.15% and the “percentage of EdU-negative” value [2, 8] was 24 ± 1.3%. For the same sequence, the “percentage of EdU-negative” value [2, 9] was 25 ± 2%.

In the case of “MTALFLMSMLFGLTCGQAMSFCIPTEYTMHIERRECAYCLTINTTICAGYCMTRDINGKLFLPKYALSQDVCTYRDFIYRTVEIPGCPLHVAPYFSYPVALSCKCGKCNTDYSDCIHEAIKTNYCTKPQKSYLVGFSV”, the “percentage of EdU-negative” value ([1]; protein concentration 0.017 µM) is reported as 5.28 ± 0.69%, the “percentage of EdU-negative” value ([1]; protein concentration 0.17 µM) is reported as 9.97 ± 1.1% and the “percentage of EdU-negative” value ([2]; protein concentration 0.017 µM) is reported as 27.8 ± 3.8%. For the same sequence, the “percentage of EdU-negative” value ([2]; protein concentration 0.17 µM) was 27.2 ± 1.9%.

For “MTAPGAAGRCPPTTWLGSLLLLVCLLASRSITEEVSEYCSHMIGSGHLQSLQRLIDSQMETSCQITFEFVDQEQLKDPVCYLKKAFLLVQDIMEDTMRFRDNTPNAIAIVQLQELSLRLKSCFTKDYEEHDKACVRTFYETPLQLLEKVKNVFNETKNLLDKDWNIFSKNCNNSFAECSSQDVVTKPDCNCLYPKAIPSSDPASVSPHQPLAPSMAPVAGLTWEDSEGTEGSSLLPGEQPLHTVDPGSAKQRPPRSTCQSFEPPETPVVKDSTIGGSPQPRPSVGAFNPGMEDILDSAMGTNWVPEEASGEASEIPVPQGTELSPSRPGGGSMQTEPARPSNFLSASSPLPASAKGQQPADVTGTALPRVGPVRPTGQDWNHTPQKTDHPSALLRDPPEPGSPRISSLRPQGLSNPSTLSAQPQLSRSHSSGSVLPLGELEGRRSTRDRRSPAEPEGGPASEGAARPLPRFNSVPLTDTGHERQSEGSFSPQLQESVFHLLVPSVILVLLAVGGLLFYRWRRRSHQEPQRADSPLEQPEGSPLTQDDRQVELPV”, the “percentage of EdU-negative” value [1, 10] was 5.8 ± 0.14%, the “percentage of EdU-negative” value [1, 11] was 4.68 ± 0.61% and the “percentage of EdU-negative” value [1, 12] was 6.92 ± 1.3%. For the same sequence, the “percentage of EdU-negative” value [1, 13] was 6.12 ± 1.1%, the “percentage of EdU-negative” value [2, 10] was 21.9 ± 1.2% and the “percentage of EdU-negative” value [2, 11] was 26.7 ± 0.3%. The “percentage of EdU-negative” value [2, 12] was 27.6 ± 1.4% and the “percentage of EdU-negative” value [2, 13] was 26 ± 0.57%.

With “MTARAWASWRSSALLLLLVPGYFPLSHPMTVAGPVGGSLSVQCRYEKEHRTLNKFWCRPPQILRCDKIVETKGSAGKRNGRVSIRDSPANLSFTVTLENLTEEDAGTYWCGVDTPWLRDFHDPIVEVEVSVFPAGTTTASSPQSSMGTSGPPTKLPVHTWPSVTRKDSPEPSPHPGSLFSNVRFLLLVLLELPLLLSMLGAVLWVNRPQRSSRSRQNWPKGENQ” the “percentage of EdU-negative” value [1, 5] was 5.08 ± 0.64%, the “percentage of EdU-negative” value ([1]; protein concentration 0.225 µM) was 12.4 ± 10% and the “percentage of EdU-negative” value [2, 5] was 26.2 ± 3.7%. The “percentage of EdU-negative” value ([2]; protein concentration 0.225 µM) was 23.5 ± 0.75%.

“MTATEALLRVLLLLLAFGHSTYGAECFPACNPQNGFCEDDNVCRCQPGWQGPLCDQCVTSPGCLHGLCGEPGQCICTDGWDGELCDRDVRACSSAPCANNRTCVSLDDGLYECSCAPGYSGKDCQKKDGPCVINGSPCQHGGTCVDDEGRASHASCLCPPGFSGNFCEIVANSCTPNPCENDGVCTDIGGDFRCRCPAGFIDKTCSRPVTNCASSPCQNGGTCLQHTQVSYECLCKPEFTGLTCVKKRALSPQQVTRLPSGYGLAYRLTPGVHELPVQQPEHRILKVSMKELNKKTPLLTEGQAICFTILGVLTSLVVLGTVGIVFLNKCETWVSNLRYNHMLRKKKNLLLQYNSGEDLAVNIIFPEKIDMTTFSKEAGDEEI” was tested, and the “percentage of EdU-negative” value [1, 14] was 4.9 ± 0.42%, the “percentage of EdU-negative” value [1, 15] was 6.02 ± 1.2% and the “percentage of EdU-negative” value [2, 14] was 27.1 ± 2.7%. The “percentage of EdU-negative” value [2, 15] was 26.7 ± 1.4%.

In the case of “MTCKMSQLERNIETIINTFHQYSVKLGHPDTLNQGEFKELVRKDLQNFLKKENKNEKVIEHIMEDLDTNADKQLSFEEFIMLMARLTWASHEKMHEGDEGPGHHHKPGLGEGTP”, the “percentage of EdU-negative” value [1, 11] is reported as 5.56 ± 0.9%, the “percentage of EdU-negative” value [1, 13] is reported as 5.25 ± 0.34% and the “percentage of EdU-negative” value [2, 11] is reported as 26 ± 1.1%. The “percentage of EdU-negative” value [2, 13] was 24.6 ± 0.91%.
